Data reported in article PMC9708728.

Target: SARS-CoV-2 RBD (R319-F541) with a C-terminal His tag (SARS-CoV-2) (UniProt P0DTC2)
Assay: SEC + other: non-reducing SDS-PAGE

SARS-CoV-2 RBD (R319-F541) with a C-terminal His tag (from UniProt P0DTC2 319-541) (domain or fragment)
percent dimer: 30% | stoichiometry N: 2
